No end group written: not given here.
B1: FAM-labeled scrambled GTI peptide SGYQTFYWPGPI (peptide)
peptide: SGYQTFYWPGPI
modifications: also: FAM label, position not given here
notes: Random permutation of the GTI peptide; also called scrambled peptide; scrambled control

Legend:
[1] = molecular target: T1, Prostate-specific membrane antigen (PSMA) (human, UniProt Q04609 1-750); experiment: apparent Kd, flow cytometry, FAM-labeled peptide on PSMA-positive LNCaP cells, 4 C, one-site fit
T1 construct: whole, on cells; Never tested as an isolated protein against single peptides; also called NAAG peptidase; glutamate carboxypeptidase II (GCPII)
Source text: Flow cytometry analysis. Cells were detached using non-enzymatic cell dissociation solution and suspended in PBS (pH=7.4) at a concentration of 1×10⁶ cells/mL. […] The cells were then washed with PBS for three times and subjected to fluorescence analysis on a FACSCalibur flow cytometer (BD Biosciences, Franklin Lakes, N.J.).
Apparent equilibrium dissociation constant (Kd) of the peptides. […] Flow cytometry was employed to determine the percentage of cells that were labeled with the peptides. The apparent Kd values were calculated by fitting to a one-site specific binding model using GraphPad Prism 5.

[2] = molecular target: T1, Prostate-specific membrane antigen …; experiment: competitive inhibition on LNCaP cells, peptide pre-incubation at 100 uM then phage, phage titering
Procedure: Competitive inhibition assay. Competitive binding inhibition between selected phages and their encoded peptides was examined in this study. […] The bound phages were recovered and titered as described above.
It was first evaluated whether these phages bind to LNCaP cells via specific interaction with their encoding peptides. LNCaP cells were pre-incubated with the encoding peptides, followed by washing and incubation with the corresponding phages. The bound phages were then eluted and titered.

[3] = molecular target: T1, Prostate-specific membrane antigen …; experiment: apparent Kd by flow cytometry on C4-2 cells; weaker than GTI

T1 sequence (Q04609 whole entry): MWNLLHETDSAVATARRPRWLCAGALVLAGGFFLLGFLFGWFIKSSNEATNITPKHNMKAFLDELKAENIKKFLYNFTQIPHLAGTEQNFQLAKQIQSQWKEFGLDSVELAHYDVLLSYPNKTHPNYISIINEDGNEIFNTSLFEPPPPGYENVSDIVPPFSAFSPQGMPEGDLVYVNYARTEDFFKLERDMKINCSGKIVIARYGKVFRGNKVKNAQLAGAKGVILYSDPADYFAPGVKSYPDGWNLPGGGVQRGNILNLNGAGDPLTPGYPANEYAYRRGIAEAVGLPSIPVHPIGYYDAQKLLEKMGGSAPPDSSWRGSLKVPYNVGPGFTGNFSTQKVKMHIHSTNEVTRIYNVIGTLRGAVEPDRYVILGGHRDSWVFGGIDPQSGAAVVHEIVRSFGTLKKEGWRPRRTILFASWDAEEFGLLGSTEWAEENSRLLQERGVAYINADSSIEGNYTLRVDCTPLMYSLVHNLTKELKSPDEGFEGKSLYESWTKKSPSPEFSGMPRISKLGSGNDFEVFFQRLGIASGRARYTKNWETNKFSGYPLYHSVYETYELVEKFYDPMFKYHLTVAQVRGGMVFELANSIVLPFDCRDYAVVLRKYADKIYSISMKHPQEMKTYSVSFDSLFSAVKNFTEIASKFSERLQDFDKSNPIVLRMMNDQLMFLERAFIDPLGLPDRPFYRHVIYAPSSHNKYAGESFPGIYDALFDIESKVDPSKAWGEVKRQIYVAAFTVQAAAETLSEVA

Binder | Kd [1] [µM] | binding result [2] | further results
TGHLYPTRMEIQ (also: FAM label, position not given here) [FAM-labeled TGH peptide TGHLYPTRMEIQ] | 8.01 | – | –
TGHLYPTRMEIQ [TGH synthetic peptide TGHLYPTRMEIQ] | – | binds | –
YVNSHSILGYTG (also: FAM label, position not given here) [FAM-labeled YVN peptide YVNSHSILGYTG] | 9.34 | – | –
YVNSHSILGYTG [YVN synthetic peptide YVNSHSILGYTG] | – | binds | –
HSDNHYRPADKL (also: FAM label, position not given here) [FAM-labeled HSD peptide HSDNHYRPADKL] | 12.8 | – | –
B1 | – | – | binding result [3]: binds
